Results reported in publication PMC6580467.
Values belong to the binder of their own block, whether it stands above or below them.

Molecular target: C-type lectin-like receptor 2 (CLEC-2) on platelets (human (endogenous in platelets of healthy donors)) (UniProt Q9P126)
Sequence of UniProt Q9P126 (Q9P126 whole entry): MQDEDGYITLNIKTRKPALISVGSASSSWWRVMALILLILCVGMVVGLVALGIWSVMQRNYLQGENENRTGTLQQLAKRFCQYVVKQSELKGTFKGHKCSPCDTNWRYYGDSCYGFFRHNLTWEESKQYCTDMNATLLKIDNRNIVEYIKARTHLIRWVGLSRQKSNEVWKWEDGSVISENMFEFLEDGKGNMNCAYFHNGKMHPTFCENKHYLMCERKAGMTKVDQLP

- inhibition by mAb SZ168 (10, 15 μg/mL) of platelet aggregation induced by NCI-H226 cells in human platelet-rich plasma; maximal inhibition ratio: 74.2%
- inhibition by mAb SZ168 (15, 20 μg/mL) of platelet aggregation induced by C8161 cells in human platelet-rich plasma; maximal inhibition ratio at 20 μg/mL: 73.9%
- inhibition by mAb SZ168 (20, 25 μg/mL) of platelet aggregation induced by CNE-2 cells in human platelet-rich plasma; maximal inhibition ratio at 25 μg/mL: 77.1%
B1: Podoplanin (PDPN), endogenous on human cancer cell lines (natural protein)
chain: ASTGQPEDDTETTGLEGGVAMPGAEDDVVTPGTSEDRYKSGLTTLVATSVNSVTGIRIEDLPTSESTVHAQEQSPSATASNVATSHSTEKVDGDTQTTVEKDGLSTVTLVGIIVGVLLAIGFIGAIIVVVMRKMSGRYSP

- inhibition by mAb SZ168 (10, 15 μg/mL) of platelet aggregation induced by CHO/hPDPN cells in human platelet-rich plasma; maximal inhibition ratio: 72.6%
B2: Human podoplanin expressed on CHO cells (CHO/hPDPN) (natural protein)
chain: B1 chain
